# Measured values published in IntAct's records for PubMed 31515488.
# B1: Keratin, type II cytoskeletal 6A (Homo sapiens), P02538 (parent)
# chain: MASTSTTIRSHSSSRRGFSANSARLPGVSRSGFSSVSVSRSRGSGGLGGACGGAGFGSRSLYGLGGSKRISIGGGSCAISGGYGSRAGGSYGFGGAGSGFGFGGGAGIGFGLGGGAGLAGGFGGPGFPVCPPGGIQEVTVNQSLLTPLNLQIDPTIQRVRAEEREQIKTLNNKFASFIDKVRFLEQQNKVLETKWTLLQEQGTKTVRQNLEPLFEQYINNLRRQLDSIVGERGRLDSELRGMQDLVEDFKNKYEDEINKRTAAENEFVTLKKDVDAAYMNKVELQAKADTLTDEINFLRALYDAELSQMQTHISDTSVVLSMDNNRNLDLDSIIAEVKAQYEEIAQRSRAEAESWYQTKYEELQVTAGRHGDDLRNTKQEIAEINRMIQRLRSEIDHVKKQCANLQAAIADAEQRGEMALKDAKNKLEGLEDALQKAKQDLARLLKEYQELMNVKLALDVEIATYRKLLEGEECRLNGEGVGQVNISVVQSTVSSGYGGASGVGSGLGLGGGSSYSYGSGLGVGGGFSSSSGRAIGGGLSSVGGGSSTIKYTTTSSSSRKSYKH
# partner: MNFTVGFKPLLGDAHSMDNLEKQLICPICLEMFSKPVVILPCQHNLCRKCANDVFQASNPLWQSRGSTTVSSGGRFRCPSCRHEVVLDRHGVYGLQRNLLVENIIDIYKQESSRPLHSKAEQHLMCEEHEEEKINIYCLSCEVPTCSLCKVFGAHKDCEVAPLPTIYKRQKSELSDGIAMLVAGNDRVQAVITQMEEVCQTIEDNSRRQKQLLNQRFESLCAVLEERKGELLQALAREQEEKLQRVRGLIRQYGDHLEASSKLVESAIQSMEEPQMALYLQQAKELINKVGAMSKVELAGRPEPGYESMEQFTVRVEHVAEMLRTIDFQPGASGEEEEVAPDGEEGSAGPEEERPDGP
# B2: Zinc finger protein RFP (Homo sapiens), P14373 (parent)
# chain: MASGSVAECLQQETTCPVCLQYFAEPMMLDCGHNICCACLARCWGTAETNVSCPQCRETFPQRHMRPNRHLANVTQLVKQLRTERPSGPGGEMGVCEKHREPLKLYCEEDQMPICVVCDRSREHRGHSVLPLEEAVEGFKEQIQNQLDHLKRVKDLKKRRRAQGEQARAELLSLTQMEREKIVWEFEQLYHSLKEHEYRLLARLEELDLAIYNSINGAITQFSCNISHLSSLIAQLEEKQQQPTRELLQDIGDTLSRAERIRIPEPWITPPDLQEKIHIFAQKCLFLTESLKQFTEKMQSDMEKIQELREAQLYSVDVTLDPDTAYPSLILSDNLRQVRYSYLQQDLPDNPERFNLFPCVLGSPCFIAGRHYWEVEVGDKAKWTIGVCEDSVCRKGGVTSAPQNGFWAVSLWYGKEYWALTSPMTALPLRTPLQRVGIFLDYDAGEVSFYNVTERCHTFTFSHATFCGPVRPYFSLSYSGGKSAAPLIICPMSGIDGFSGHVGNHGHSMETSP
# partner: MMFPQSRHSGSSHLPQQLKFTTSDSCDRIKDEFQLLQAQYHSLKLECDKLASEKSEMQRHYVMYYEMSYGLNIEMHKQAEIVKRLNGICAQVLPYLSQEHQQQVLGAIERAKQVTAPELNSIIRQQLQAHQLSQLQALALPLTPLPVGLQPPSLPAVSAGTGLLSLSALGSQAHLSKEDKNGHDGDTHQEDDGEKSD
# B3: AKT-interacting protein (Homo sapiens), Q9H8T0 (parent)
# chain: MNPFWSMSTSSVRKRSEGEEKTLTGDVKTSPPRTAPKKQLPSIPKNALPITKPTSPAPAAQSTNGTHASYGPFYLEYSLLAEFTLVVKQKLPGVYVQPSYRSALMWFGVIFIRHGLYQDGVFKFTVYIPDNYPDGDCPRLVFDIPVFHPLVDPTSGELDVKRAFAKWRRNHNHIWQVLMYARRVFYKIDTASPLNPEAAVLYEKDIQLFKSKVVDSVKVCTARLFDQPKIEDPYAISFSPWNPSVHDEAREKMLTQKKPEEQHNKSVHVAGLSWVKPGSVQPFSKEEKTVAT
# partner: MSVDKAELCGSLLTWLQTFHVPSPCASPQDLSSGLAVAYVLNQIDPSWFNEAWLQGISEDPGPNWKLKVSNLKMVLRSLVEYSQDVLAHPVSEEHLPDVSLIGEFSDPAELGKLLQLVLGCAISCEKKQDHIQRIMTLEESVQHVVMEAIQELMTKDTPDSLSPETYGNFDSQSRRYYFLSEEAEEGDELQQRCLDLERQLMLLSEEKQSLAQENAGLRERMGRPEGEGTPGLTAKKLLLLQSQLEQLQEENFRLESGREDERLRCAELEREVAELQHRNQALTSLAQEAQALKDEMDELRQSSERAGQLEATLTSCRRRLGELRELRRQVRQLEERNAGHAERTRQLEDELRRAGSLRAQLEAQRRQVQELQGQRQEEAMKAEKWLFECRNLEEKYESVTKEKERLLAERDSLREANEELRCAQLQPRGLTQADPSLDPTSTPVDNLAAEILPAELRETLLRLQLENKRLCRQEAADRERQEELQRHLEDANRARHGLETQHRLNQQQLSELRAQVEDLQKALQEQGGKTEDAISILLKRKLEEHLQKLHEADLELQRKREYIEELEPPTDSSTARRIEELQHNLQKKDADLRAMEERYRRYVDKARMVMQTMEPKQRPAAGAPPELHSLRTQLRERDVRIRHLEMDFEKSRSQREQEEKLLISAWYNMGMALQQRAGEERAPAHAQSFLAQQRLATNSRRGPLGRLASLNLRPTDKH
# B4: Adenosylhomocysteinase (Homo sapiens), P23526 (parent)
# chain: MSDKLPYKVADIGLAAWGRKALDIAENEMPGLMRMRERYSASKPLKGARIAGCLHMTVETAVLIETLVTLGAEVQWSSCNIFSTQDHAAAAIAKAGIPVYAWKGETDEEYLWCIEQTLYFKDGPLNMILDDGGDLTNLIHTKYPQLLPGIRGISEETTTGVHNLYKMMANGILKVPAINVNDSVTKSKFDNLYGCRESLIDGIKRATDVMIAGKVAVVAGYGDVGKGCAQALRGFGARVIITEIDPINALQAAMEGYEVTTMDEACQEGNIFVTTTGCIDIILGRHFEQMKDDAIVCNIGHFDVEIDVKWLNENAVEKVNIKPQVDRYRLKNGRRIILLAEGRLVNLGCAMGHPSFVMSNSFTNQVMAQIELWTHPDKYPVGVHFLPKKLDEAVAEAHLGKLNVKLTKLTEKQAQYLGMSCDGPFKPDHYRY
# partner: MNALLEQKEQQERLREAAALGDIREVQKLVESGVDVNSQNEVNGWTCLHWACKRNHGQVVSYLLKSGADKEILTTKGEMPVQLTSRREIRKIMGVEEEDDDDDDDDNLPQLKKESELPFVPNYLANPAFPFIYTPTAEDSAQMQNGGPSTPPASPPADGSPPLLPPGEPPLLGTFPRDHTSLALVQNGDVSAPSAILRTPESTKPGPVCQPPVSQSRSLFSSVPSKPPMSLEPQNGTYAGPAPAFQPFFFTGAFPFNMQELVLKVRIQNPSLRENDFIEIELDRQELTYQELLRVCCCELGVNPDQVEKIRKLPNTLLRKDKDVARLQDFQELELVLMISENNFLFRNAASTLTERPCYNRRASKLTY
# B5: F-BAR domain only protein 1 (Homo sapiens), O14526 (parent)
# chain: MSYFGEHFWGEKNHGFEVLYHSVKQGPISTKELADFIRERATIEETYSKAMAKLSKLASNGTPMGTFAPLWEVFRVSSDKLALCHLELTRKLQDLIKDVLRYGEEQLKTHKKCKEEVVSTLDAVQVLSGVSQLLPKSRENYLNRCMDQERLRRESTSQKEMDKAETKTKKAAESLRRSVEKYNSARADFEQKMLDSALRFQAMEETHLRHMKALLGSYAHSVEDTHVQIGQVHEEFKQNIENVSVEMLLRKFAESKGTGREKPGPLDFEAYSAAALQEAMKRLRGAKAFRLPGLSRREREPEPPAAVDFLEPDSGTCPEVDEEGFTVRPDVTQNSTAEPSRFSSSDSDFDDEEPRKFYVHIKPAPARAPACSPEAAAAQLRATAGSLILPPGPGGTMKRHSSRDAAGKPQRPRSAPRTSSCAERLQSEEQVSKNLFGPPLESAFDHEDFTGSSSLGFTSSPSPFSSSSPENVEDSGLDSPSHAAPGPSPDSWVPRPGTPQSPPSCRAPPPEARGIRAPPLPDSPQPLASSPGPWGLEALAGGDLMPAPADPTAREGLAAPPRRLRSRKVSCPLTRSNGDLSRSLSPSPLGSSAASTALERPSFLSQTGHGVSRGPSPVVLGSQDALPIATAFTEYVHAYFRGHSPSCLARVTGELTMTFPAGIVRVFSGTPPPPVLSFRLVHTTAIEHFQPNADLLFSDPSQSDPETKDFWLNMAALTEALQRQAEQNPTASYYNVVLLRYQFSRPGPQSVPLQLSAHWQCGATLTQVSVEYGYRPGATAVPTPLTNVQILLPVGEPVTNVRLQPAATWNLEEKRLTWRLPDVSEAGGSGRLSASWEPLSGPSTPSPVAAQFTSEGTTLSGVDLELVGSGYRMSLVKRRFATGMYLVSC
# partner: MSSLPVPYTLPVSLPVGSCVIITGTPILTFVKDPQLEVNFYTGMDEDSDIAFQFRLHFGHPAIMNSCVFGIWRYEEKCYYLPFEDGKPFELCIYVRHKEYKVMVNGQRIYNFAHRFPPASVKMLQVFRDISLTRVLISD
# B6: Isoform 1 of Segment polarity protein dishevelled homolog DVL-3 (Homo sapiens), Q92997-1 (parent)
# chain: MGETKIIYHLDGQETPYLVKLPLPAERVTLADFKGVLQRPSYKFFFKSMDDDFGVVKEEISDDNAKLPCFNGRVVSWLVSAEGSHPDPAPFCADNPSELPPPMERTGGIGDSRPPSFHPHAGGGSQENLDNDTETDSLVSAQRERPRRRDGPEHATRLNGTAKGERRREPGGYDSSSTLMSSELETTSFFDSDEDDSTSRFSSSTEQSSASRLMRRHKRRRRKQKVSRIERSSSFSSITDSTMSLNIITVTLNMEKYNFLGISIVGQSNERGDGGIYIGSIMKGGAVAADGRIEPGDMLLQVNEINFENMSNDDAVRVLREIVHKPGPITLTVAKCWDPSPRGCFTLPRSEPIRPIDPAAWVSHTAAMTGTFPAYGMSPSLSTITSTSSSITSSIPDTERLDDFHLSIHSDMAAIVKAMASPESGLEVRDRMWLKITIPNAFIGSDVVDWLYHNVEGFTDRREARKYASNLLKAGFIRHTVNKITFSEQCYYIFGDLCGNMANLSLHDHDGSSGASDQDTLAPLPHPGAAPWPMAFPYQYPPPPHPYNPHPGFPELGYSYGGGSASSQHSEGSRSSGSNRSGSDRRKEKDPKAGDSKSGGSGSESDHTTRSSLRGPRERAPSERSGPAASEHSHRSHHSLASSLRSHHTHPSYGPPGVPPLYGPPMLMMPPPPAAMGPPGAPPGRDLASVPPELTASRQSFRMAMGNPSEFFVDVM
# B7: Microtubule-associated tumor suppressor candidate 2 (Homo sapiens), Q5JR59-3 (parent)
# chain: MGHCCCKPYNCLQCLDKTNESALVKEKELSIELANIRDEVAFHTAKCEKLQKEKEELERRFEDEVKRLGWQQQAELQELEERLQLQFEAEMARLQEEHGDQLLSIRCQHQEQVEDLTASHDAALLEMENNHTVAITILQDDHDHKVQELMSTHELEKKELEENFEKLRLSLQDQVDTLTFQSQSLRDRARRFEEALRKNTEEQLEIALAPYQHLEEDMKSLKQVLEMKNQQIHEQEKKILELEKLAEKNIILEEKIQVLQQQNEDLKARIDQNTVVTRQLSEENANLQEYVEKETQEKKRLSRTNEELLWKLQTGDPTSPIKLSPTSPVYRGSSSGPSSPARVSTTPR
# partner: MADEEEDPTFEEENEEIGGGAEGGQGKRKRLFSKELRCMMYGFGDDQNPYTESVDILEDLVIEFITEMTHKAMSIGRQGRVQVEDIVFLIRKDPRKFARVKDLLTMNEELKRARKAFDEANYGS
# B8: Nucleoside diphosphate kinase homolog 5 (Homo sapiens), P56597 (parent)
# chain: MEISMPPPQIYVEKTLAIIKPDIVDKEEEIQDIILRSGFTIVQRRKLRLSPEQCSNFYVEKYGKMFFPNLTAYMSSGPLVAMILARHKAISYWLELLGPNNSLVAKETHPDSLRAIYGTDDLRNALHGSNDFAAAEREIRFMFPEVIVEPIPIGQAAKDYLNLHIMPTLLEGLTELCKQKPADPLIWLADWLLKNNPNKPKLCHHPIVEEPY
# partner: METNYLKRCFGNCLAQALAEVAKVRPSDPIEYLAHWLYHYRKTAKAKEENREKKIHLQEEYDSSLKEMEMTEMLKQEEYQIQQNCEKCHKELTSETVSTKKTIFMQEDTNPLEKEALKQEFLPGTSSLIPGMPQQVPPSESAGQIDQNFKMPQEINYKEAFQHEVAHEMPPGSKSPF
# Variants of: B1
# Conditions: with tri54_human TRIM54, Q9BYV2
row,effect of a mutation on the interaction,Variant
1,with no effect,L210M
2,with no effect,A335T
3,with no effect,T552S
4,with no effect,V523F

# Variants of: B2
# Conditions: with tle5_human TLE5, Q08117
row,effect of a mutation on the interaction,Variant
1,with no effect,N355S

# Variants of: B3
# Conditions: with hook2_human HOOK2, Q96ED9
row,effect of a mutation on the interaction,Variant
1,with no effect,R33Q

# Variants of: B4
# Conditions: with anr40_human ANKRD40, Q6AI12
row,effect of a mutation on the interaction,Variant
1,with no effect,I92V

# Variants of: B5
# Conditions: with ppl13_human LGALS14, Q8TCE9
row,effect of a mutation on the interaction,Variant
1,with no effect,E423G

# Variants of: B6
# Conditions: with kat7_human KAT7, O95251
# Sequence of kat7_human KAT7, O95251 (O95251 whole entry): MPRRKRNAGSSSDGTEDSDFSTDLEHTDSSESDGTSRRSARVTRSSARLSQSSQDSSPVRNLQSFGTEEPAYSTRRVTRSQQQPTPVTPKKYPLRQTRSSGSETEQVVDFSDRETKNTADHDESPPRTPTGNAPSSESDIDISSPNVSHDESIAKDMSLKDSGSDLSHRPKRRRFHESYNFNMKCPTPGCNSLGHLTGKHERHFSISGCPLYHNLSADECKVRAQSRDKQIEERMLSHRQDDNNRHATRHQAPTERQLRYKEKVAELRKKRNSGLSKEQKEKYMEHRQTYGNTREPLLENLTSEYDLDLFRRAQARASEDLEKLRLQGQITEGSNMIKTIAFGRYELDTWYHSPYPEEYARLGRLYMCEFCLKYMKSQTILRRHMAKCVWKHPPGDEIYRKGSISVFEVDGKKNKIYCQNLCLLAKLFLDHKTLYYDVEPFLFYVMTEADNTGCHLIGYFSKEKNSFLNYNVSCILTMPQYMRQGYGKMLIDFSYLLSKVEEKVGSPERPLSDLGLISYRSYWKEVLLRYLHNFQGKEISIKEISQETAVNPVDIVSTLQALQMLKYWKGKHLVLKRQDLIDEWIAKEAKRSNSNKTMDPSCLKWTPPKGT
row,effect of a mutation on the interaction,Variant
1,with no effect,R216T

# Variants of: B7
# Conditions: with taf13_human TAF13, Q15543
row,effect of a mutation on the interaction,Variant
1,with no effect,A89V

# Variants of: B8
# Conditions: with dydc2_human DYDC2, Q96IM9
row,effect of a mutation on the interaction,Variant
1,with no effect,N198D
